Reference: the RNAGym collection of RNA variant scans (doi:10.1101/gr.219683.116)

B1: mRNA-splicing (parent)
chain: AGUUGCUGCUGGGAGCUCCAGCACAGUGAAAUGGACAGAAGGGCAGAGCAA

Variants of: B1
Assay: exon inclusion enrichment index; higher = more inclusion; WT1 exon 5 minigene, HEK293

Row | Variant | exon inclusion enrichment index
1 | C6A U7C C9A U10C C19A A20C | 2.73
2 | C6A U7C C9A U10C C19A A20U | 2.07
3 | G5C C6U U7G U10C | 0.82
4 | U3G C6A U7A C9A U10A | 0.238
5 | G5A C6G U7G C9A G28C A29C | 0.00678
6 | C6A U7A C9A U10A A45U G46A | 0.485
7 | C6A U7C C9A U10C A25G G26A | 5.01
8 | G5C C6U G8C C9U U10C G11C G12A | 0.634
9 | G5C C6U G8C C9U U10C C19G A20G | 1.04
10 | G5A C6U U7A G8U C9A A23U | 0.0353
11 | G5U G8U C9U G21C C22G | 0.384
12 | G5C C6U G8C C9U U10C U17G C18A | 2
13 | G5U G8U C9U G15C | 0.196
14 | G5C C6U G8C C9U U10C G12U | 1.11
15 | U4G C6G U7C U10C | 0.838
16 | G2U U3C G5A C6G U7G C9A | 0.0791
17 | G5C C6U G8C C9G | 3.5
18 | G5C C6U G8C C9A | 1.7
19 | G5A U7C G8C U10C | 1.39
20 | G5C C6G U7C U10C G15A C16U | 3.21
21 | G5A U7C G8A U10C G33A G34A | 0.398

Row | Variant | exon inclusion enrichment index
22 | G5C C6U G8C C9U U10C A40G G41C | 3.24
23 | G5C C6U G8C C9U U10C A20G G21U | 2.01
24 | G5C C6G U7C C9U U10A | 0.144
25 | C6A U7A C9U | 0.615
26 | G5C C6A U7C G8A U10A A23G C24U | 0.0154
27 | C6A U7A C9A U10A C19G A20G | 0.289
28 | C6A U7C C9A U10C G46C | 2.33
29 | G5U G8U C9U G21A C22G | 0.143
30 | C6A U7A C9A U10A G11A G12A | 1.79
31 | G5A C6U U7A G8U C9A A29C A30C | 0.142
32 | G5A C6U U7A G8U C9A A30C A31G | 0.168
33 | G5C C6A U7C G8A U10A G12U G13U | 0.00142
34 | G5C C6A U7C G8A U10A G12U G13C | 0.0217
35 | G8C C9G | 0.884
36 | C6A G8A C9A U10A | 0.0495
37 | C6A U7A C9A U10A A35U | 0.119
38 | C6A U7C C9A U10C G34U A35G | 1.29
39 | G5C C6U G8C C9U U10C G41U G42U | 1.74
40 | G5A U7C G8A U10C A39C A40C | 3.03
41 | G5A C6U U7A G8U C9A G34A A35U | 0.00832
42 | G46C A47U | 0.224

Row | Variant | exon inclusion enrichment index
43 | G5C C6U G8C C9U U10C C19U A20G | 0.343
44 | G5C C6U G8C C9U U10C A25C G26C | 2.25
45 | G5C C6A U7C G8A U10A G21A C22A | 0.0529
46 | G5U G8U C9U G13C | 0.0102
47 | C6A U7C C9A U10C A35C C36U | 0.742
48 | C6A U7C C9A U10C U32C G33C | 4
49 | G5C C6A U7C G8A U10A A14G G15U | 0.0158
50 | G5U G8U C9U A14C G15C | 0.0167
51 | G5A U7C G8A U10C G28U | 0.556
52 | G5A C6G U7G C9A A30U A31C | 0.00225
53 | C6A U7A C9A U10A A47G | 0.13
54 | G5A C6U U7A G8U C9A G42U G43C | 0.0628
55 | G5A C6G U7G C9A A40G G41U | 0.00052
56 | G5C C6A U7C G8A U10A C16U | 0.0868
57 | U3G G5U G8U C9U | 0.0452
58 | G5A C6G U7G C9A A29U A30U | 0.000968
59 | C6A U7A C9A U10A G13U A14C | 1.14
60 | U3G U4C C6A U7A C9A U10A | 1.04
61 | G5C C6U G8C C9U U10C G21U C22G | 1.74
62 | G5A U7C G8A U10C A14C | 1.69
63 | U3C U4G G5C C6G U7C U10C | 1.31

Row | Variant | exon inclusion enrichment index
64 | G5U G8U C9U G38A A39U | 0.00274
65 | C6A U7A G8A C9G U10A | 0.2
66 | C6A U7C C9A U10C G42C | 4.02
67 | C6A U7A C9A U10G | 0.498
68 | G5C C6A U7C G8A U10A G26U U27G | 0.355
69 | G5C C6A U7C G8A U10A A35C C36G | 0.107
70 | G5A C6G U7G C9A G33U G34C | 0.00131
71 | G5A U7C G8A U10G | 1.28
72 | G5A U7C G8A U10A | 0.253
73 | G2C U3G G5C C6G U7C U10C | 2.57
74 | G5U C9G | 0.253
75 | G5A C6U U7A G8U C9G U10A | 0.0375
76 | C6A U7A C9A U10A G42U | 0.988
77 | C6A U7C C9A U10C U32A G33A | 2.07
78 | G5A U7C G8A C9A U10A | 0.384
79 | G5A C6G U7G C9A G42U G43C | 0.0126
80 | G5A C6U U7A G8U C9A G13U | 0.00122
81 | A47G | 0.0334
82 | G5A C6G U7G C9A G13A A14C | 0.0219
83 | G5C C6A U7C G8A U10A G26A U27G | 0.258
